Results reported in article PMC9482650, “Quantitative fragmentomics allow affinity mapping of interactomes” (Nature Communications, 2022).
Residue numbers refer to the chain shown, from its start.

T1: APBA1_1, Q02410
T1 sequence (Q02410 651-752, limits assumed, looked up): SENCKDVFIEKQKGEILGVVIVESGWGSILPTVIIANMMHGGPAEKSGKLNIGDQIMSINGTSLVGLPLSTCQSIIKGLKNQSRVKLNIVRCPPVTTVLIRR

T2: APBA1_2, Q02410
T2 sequence (Q02410 742-832, limits assumed, looked up): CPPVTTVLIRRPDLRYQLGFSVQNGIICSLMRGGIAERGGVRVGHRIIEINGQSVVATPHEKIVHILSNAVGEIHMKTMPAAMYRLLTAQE

T3: APBA2_1, Q99767
T3 sequence (Q99767 563-664, limits assumed, looked up): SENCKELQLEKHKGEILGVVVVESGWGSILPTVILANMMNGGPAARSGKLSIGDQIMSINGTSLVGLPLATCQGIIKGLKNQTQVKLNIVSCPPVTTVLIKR

T4: APBA2_2, Q99767
T4 sequence (Q99767 654-744, limits assumed, looked up): T2 sequence (Q02410 742-832, limits assumed, looked up) with R10K, R15K, P59A, H65Q, I66A, A70S, Y84F, A89G

T5: DVL3, Q92997
T5 sequence (Q92997 244-331, limits assumed, looked up): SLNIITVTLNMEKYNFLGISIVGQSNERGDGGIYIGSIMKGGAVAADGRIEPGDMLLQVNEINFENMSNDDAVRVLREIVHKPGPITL

T6: GRIP1_4, Q9Y3R0
T6 sequence (Q9Y3R0 467-571, limits assumed, looked up): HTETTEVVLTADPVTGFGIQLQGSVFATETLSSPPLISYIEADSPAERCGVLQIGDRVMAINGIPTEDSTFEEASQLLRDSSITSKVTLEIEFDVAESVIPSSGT

T7: HTRA3, P83110
T7 sequence (P83110 354-453, limits assumed, looked up): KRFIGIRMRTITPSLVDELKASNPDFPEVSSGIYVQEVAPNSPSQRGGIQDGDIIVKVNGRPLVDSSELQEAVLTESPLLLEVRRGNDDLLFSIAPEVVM

T8: LIN7C, Q9NUP9
T8 sequence (Q9NUP9 88-185, limits assumed, looked up): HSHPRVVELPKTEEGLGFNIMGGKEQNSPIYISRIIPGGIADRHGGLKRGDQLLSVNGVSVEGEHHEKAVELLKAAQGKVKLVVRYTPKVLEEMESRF

T9: LNX2_2, Q8N448
T9 sequence (Q8N448 334-432, limits assumed, looked up): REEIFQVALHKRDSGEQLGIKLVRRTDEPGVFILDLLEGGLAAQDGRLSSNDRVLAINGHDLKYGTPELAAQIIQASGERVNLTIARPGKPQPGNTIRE

T10: LNX2_3, Q8N448
T10 sequence (Q8N448 463-564, limits assumed, looked up): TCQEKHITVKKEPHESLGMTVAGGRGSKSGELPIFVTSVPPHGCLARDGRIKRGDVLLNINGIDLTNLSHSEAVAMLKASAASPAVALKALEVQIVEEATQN

T11: MPDZ_10, O75970
T11 sequence (O75970 1624-1722, limits assumed, looked up): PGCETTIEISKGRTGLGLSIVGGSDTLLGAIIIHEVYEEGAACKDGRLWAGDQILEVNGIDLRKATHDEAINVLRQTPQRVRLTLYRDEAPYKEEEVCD

T12: NHERF3_3, Q5T2W1
T12 sequence (Q5T2W1 238-333, limits assumed, looked up): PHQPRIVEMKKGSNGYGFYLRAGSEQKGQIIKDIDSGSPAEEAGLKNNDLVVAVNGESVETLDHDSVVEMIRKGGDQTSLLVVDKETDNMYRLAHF

T13: SNTA1, Q13424
T13 sequence (Q13424 82-180, limits assumed, looked up): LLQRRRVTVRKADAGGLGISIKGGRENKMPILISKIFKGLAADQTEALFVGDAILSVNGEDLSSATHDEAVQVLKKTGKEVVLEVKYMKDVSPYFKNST


What was measured:
Experiment in all cases: holdup assay
Parameters in all cases: key: below the threshold = too weak to quantify, mostly under pKd 3.1 to 4
Conditions in all cases: plain residues with an end cap or a label only (N-terminal biotin on a linker: ado-ado)
APBA1_1, Q02410 = molecular target: T1, APBA1_1, Q02410
APBA1_2, Q02410 = molecular target: T2, APBA1_2, Q02410
APBA2_1, Q99767 = molecular target: T3, APBA2_1, Q99767
APBA2_2, Q99767 = molecular target: T4, APBA2_2, Q99767
DLG4_1, P78352 = molecular target: DLG4_1, P78352
DVL3, Q92997 = molecular target: T5, DVL3, Q92997
FRMPD2_3, Q68DX3 = molecular target: FRMPD2_3, Q68DX3
GRID2IP_1, A4D2P6 = molecular target: GRID2IP_1, A4D2P6
GRIP1_4, Q9Y3R0 = molecular target: T6, GRIP1_4, Q9Y3R0
GRIP2_4, Q9C0E4 = molecular target: GRIP2_4, Q9C0E4
HTRA3, P83110 = molecular target: T7, HTRA3, P83110
Inadl_4, Q8NI35 = molecular target: Inadl_4, Q8NI35
LIN7C, Q9NUP9 = molecular target: T8, LIN7C, Q9NUP9
LNX1_2, Q8TBB1 = molecular target: LNX1_2, Q8TBB1
LNX1_3, Q8TBB1 = molecular target: LNX1_3, Q8TBB1
LNX2_2, Q8N448 = molecular target: T9, LNX2_2, Q8N448
LNX2_3, Q8N448 = molecular target: T10, LNX2_3, Q8N448
MAGI2_2, Q86UL8 = molecular target: MAGI2_2, Q86UL8
MPDZ_10, O75970 = molecular target: T11, MPDZ_10, O75970
NHERF3_3, Q5T2W1 = molecular target: T12, NHERF3_3, Q5T2W1
NHERF4_2, Q86UT5 = molecular target: NHERF4_2, Q86UT5
NHERF4_4, Q86UT5 = molecular target: NHERF4_4, Q86UT5
PDLIM1, O00151 = molecular target: PDLIM1, O00151
SCRIB_1, Q14160 = molecular target: SCRIB_1, Q14160
SNTA1, Q13424 = molecular target: T13, SNTA1, Q13424

Sequence of FRMPD2_3, Q68DX3 (Q68DX3 1073-1166): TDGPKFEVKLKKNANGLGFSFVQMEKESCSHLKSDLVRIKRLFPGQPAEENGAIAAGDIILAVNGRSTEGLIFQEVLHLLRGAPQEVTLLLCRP
Sequence of LNX1_3, Q8TBB1 (Q8TBB1 500-596): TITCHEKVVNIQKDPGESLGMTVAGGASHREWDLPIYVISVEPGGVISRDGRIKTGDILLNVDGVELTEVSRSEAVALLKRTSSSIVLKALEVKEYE
Sequence of NHERF4_2, Q86UT5 (Q86UT5 220-308): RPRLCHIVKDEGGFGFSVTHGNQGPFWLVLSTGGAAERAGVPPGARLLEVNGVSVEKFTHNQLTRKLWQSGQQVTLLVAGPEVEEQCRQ
Sequence of Inadl_4, Q8NI35 (Q8NI35 547-651): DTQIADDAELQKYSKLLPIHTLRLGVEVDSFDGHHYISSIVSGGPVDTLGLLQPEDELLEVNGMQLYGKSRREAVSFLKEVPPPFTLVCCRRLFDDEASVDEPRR
Sequence of PDLIM1, O00151 (O00151 1-87): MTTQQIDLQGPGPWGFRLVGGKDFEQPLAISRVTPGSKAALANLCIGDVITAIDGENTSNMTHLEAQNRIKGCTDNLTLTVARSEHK
Sequence of GRIP2_4, Q9C0E4 (Q9C0E4 446-548): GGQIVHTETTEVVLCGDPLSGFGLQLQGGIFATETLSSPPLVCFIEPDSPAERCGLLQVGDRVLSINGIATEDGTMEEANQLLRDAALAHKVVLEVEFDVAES
Sequence of MAGI2_2, Q86UL8 (Q86UL8 410-522): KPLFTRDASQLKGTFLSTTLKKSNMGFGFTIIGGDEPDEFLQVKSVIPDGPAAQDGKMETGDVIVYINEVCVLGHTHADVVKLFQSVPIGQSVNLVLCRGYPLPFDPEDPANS
Sequence of DLG4_1, P78352 (P78352 62-152): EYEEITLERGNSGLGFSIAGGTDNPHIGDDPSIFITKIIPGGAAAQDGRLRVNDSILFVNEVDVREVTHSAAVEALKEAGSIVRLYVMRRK
Sequence of SCRIB_1, Q14160 (Q14160 718-814): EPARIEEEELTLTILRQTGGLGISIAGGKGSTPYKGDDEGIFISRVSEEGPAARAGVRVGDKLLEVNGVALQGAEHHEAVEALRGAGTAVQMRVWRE
Sequence of LNX1_2, Q8TBB1 (Q8TBB1 371-470): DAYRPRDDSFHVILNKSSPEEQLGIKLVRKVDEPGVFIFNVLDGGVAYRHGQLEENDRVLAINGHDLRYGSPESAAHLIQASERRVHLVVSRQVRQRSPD
Sequence of GRID2IP_1, A4D2P6 (A4D2P6 1-87): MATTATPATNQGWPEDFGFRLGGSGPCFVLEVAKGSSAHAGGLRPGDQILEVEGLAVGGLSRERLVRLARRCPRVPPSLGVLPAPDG
Sequence of NHERF4_4, Q86UT5 (Q86UT5 464-550): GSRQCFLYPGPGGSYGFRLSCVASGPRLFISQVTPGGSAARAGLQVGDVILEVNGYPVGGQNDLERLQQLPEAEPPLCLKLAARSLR

pKd (APBA1_1, Q02410) | pKd (APBA1_2, Q02410) | pKd (APBA2_1, Q99767) | pKd (APBA2_2, Q99767) | pKd (DLG4_1, P78352) | pKd (DVL3, Q92997) | pKd (FRMPD2_3, Q68DX3) | pKd (GRID2IP_1, A4D2P6) | pKd (GRIP1_4, Q9Y3R0) | pKd (GRIP2_4, Q9C0E4) | pKd (HTRA3, P83110) | pKd (Inadl_4, Q8NI35) | pKd (LIN7C, Q9NUP9) | pKd (LNX1_2, Q8TBB1) | pKd (LNX1_3, Q8TBB1) | pKd (LNX2_2, Q8N448) | pKd (LNX2_3, Q8N448) | pKd (MAGI2_2, Q86UL8) | pKd (MPDZ_10, O75970) | pKd (NHERF3_3, Q5T2W1) | Binder | further results
below the threshold | 3.82 | below the threshold | below the threshold | 4.03 | below the threshold | below the threshold | below the threshold | below the threshold | below the threshold | below the threshold | below the threshold | below the threshold | below the threshold | below the threshold | below the threshold | below the threshold | 4.6 | below the threshold | below the threshold | RPGFASESKV [ADRB1, P08588] | pKd (NHERF4_2, Q86UT5): below the threshold; pKd (NHERF4_4, Q86UT5): below the threshold; pKd (PDLIM1, O00151): below the threshold; pKd (SCRIB_1, Q14160): 3.94; pKd (SNTA1, Q13424): 4.28
below the threshold | below the threshold | below the threshold | below the threshold | below the threshold | below the threshold | below the threshold | below the threshold | below the threshold | below the threshold | 4.55 | below the threshold | below the threshold | below the threshold | below the threshold | below the threshold | below the threshold | below the threshold | below the threshold | below the threshold | GQETPLNTFC [MAP7D2, Q96T17] | pKd (NHERF4_2, Q86UT5): below the threshold; pKd (NHERF4_4, Q86UT5): below the threshold; pKd (PDLIM1, O00151): below the threshold; pKd (SCRIB_1, Q14160): 3.88; pKd (SNTA1, Q13424): below the threshold
